# Biological target: T1, His-LCK (human, UniProt P06239 1-509)
# T1 construct: Lymphocyte-specific protein tyrosine kinase (LCK), human, full length; Cloned into pET-32a (BamHI/XhoI); also called Recombinant His-tagged LCK
# Test: pull-down; MBP fusion proteins bound to amylose resin, His-LCK incubated with 50 μL beads in 20 mM HEPES pH 7.4, 0.5% NP-40, 100 mM NaCl for 2 h at 4 °C; eluted with 10 mM maltose; immunoblot with anti-His-Tag and anti-MBP
# Details: both partners purified
# T1 sequence (P06239 whole entry): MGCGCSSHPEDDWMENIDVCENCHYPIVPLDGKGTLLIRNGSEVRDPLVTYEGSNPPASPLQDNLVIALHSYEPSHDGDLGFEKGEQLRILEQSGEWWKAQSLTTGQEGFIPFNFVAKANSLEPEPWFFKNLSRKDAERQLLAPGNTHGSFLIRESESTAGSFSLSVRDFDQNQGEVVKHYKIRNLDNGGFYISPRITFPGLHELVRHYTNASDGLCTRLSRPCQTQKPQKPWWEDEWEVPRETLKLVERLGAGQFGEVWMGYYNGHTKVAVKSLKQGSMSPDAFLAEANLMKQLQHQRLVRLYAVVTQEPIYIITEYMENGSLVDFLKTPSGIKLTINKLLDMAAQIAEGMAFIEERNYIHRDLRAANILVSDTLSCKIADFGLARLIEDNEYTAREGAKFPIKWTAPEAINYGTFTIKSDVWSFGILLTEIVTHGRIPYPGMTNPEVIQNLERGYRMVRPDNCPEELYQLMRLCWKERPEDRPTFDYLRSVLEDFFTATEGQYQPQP
row,binding result,Binder
1,binds,"MBP-FOXP3 ΔFKH (domain or fragment, human, UniProt Q9BZS1 1-332, looked up, Forkhead box P3 (FOXP3), human, fragment with a truncated forkhead domain, amino acids 1-332; Cloned into pMAL-c2; this vector is known to place MBP at the N-terminus (surmised)) MPNPRPGKPSAPSLALGPSPGASPSWRAAPKASDLLGARGPGGTFQGRDLRGGAHASSSSLNPMPPSQLQLPTLPLVMVAPSGARLGPLPHLQALLQDRPHFMHQLSTVDAHARTPVLQVHPLESPAMISLTPPTTATGVFSLKARPGLPPGINVASLEWVSREPALLCTFPNPSAPRKDSTLSAVPQSSYPLLANGVCKWPGCEKVFEEPEDFLKHCQADHLLDEKGRAQCLLQREMVQSLEQQLVLEKEKLSAMQAHLAGKMALTKASSVASSDKGSCCIVAAGSQGPVVPAWSGPREAPDSLFAVRRHLWGSHGNSTFPEFLHNMDYFK"
2,binds,"MBP-FOXP3-Full (natural protein, human, UniProt Q9BZS1 1-431, looked up, Forkhead box P3 (FOXP3), human, full length, amino acids 1-431; Cloned into pMAL-c2 (BamHI/SalI); also called MBP-FOXP3 WT) MPNPRPGKPSAPSLALGPSPGASPSWRAAPKASDLLGARGPGGTFQGRDLRGGAHASSSSLNPMPPSQLQLPTLPLVMVAPSGARLGPLPHLQALLQDRPHFMHQLSTVDAHARTPVLQVHPLESPAMISLTPPTTATGVFSLKARPGLPPGINVASLEWVSREPALLCTFPNPSAPRKDSTLSAVPQSSYPLLANGVCKWPGCEKVFEEPEDFLKHCQADHLLDEKGRAQCLLQREMVQSLEQQLVLEKEKLSAMQAHLAGKMALTKASSVASSDKGSCCIVAAGSQGPVVPAWSGPREAPDSLFAVRRHLWGSHGNSTFPEFLHNMDYFKFHNMRPPFTYATLIRWAILEAPEKQRTLNEIYHWFTRMFAFFRNHPATWKNAIRHNLSLHKCFVRVESEKGAVWTVDELEFRKKRSQRPSRCSNPTPGP"
